{"source": "patent US20170355774A1", "about": "(Regeneron, published 2017)", "binders": {"B1": {"name": "H4H14469P (antibody, human IgG4, V domains shown)", "VH": "QVQLVESGGGVVQPGGSLRLSCAVSGFTFSDYGMHWVRQVPGAGLEWVAVIYYEGSNKYYADSVKGRFTISRDNSKNTLYLQMNSLRVEDTSMYFCARGPLLGGNFYSYLMDVWGQGTTVTVSS", "VL": "AIQMTQSPSSLSASVGDRVTITCRASQGIRNGLGWYQQKPGKAPKLLIYTASSLQSGVPSRFSGSGSGTDFTLTISSLQPEDFATYYCLQDYNYPFSFGPGTKVDIK", "notes": "human IgG4 (H4H)"}}, "key": {"[1]": {"molecular_target": "T1, hGITR.mFc (human)", "T1 construct": "soluble dimeric construct with mouse Fc; also called dimeric human GITR", "T1 chain": "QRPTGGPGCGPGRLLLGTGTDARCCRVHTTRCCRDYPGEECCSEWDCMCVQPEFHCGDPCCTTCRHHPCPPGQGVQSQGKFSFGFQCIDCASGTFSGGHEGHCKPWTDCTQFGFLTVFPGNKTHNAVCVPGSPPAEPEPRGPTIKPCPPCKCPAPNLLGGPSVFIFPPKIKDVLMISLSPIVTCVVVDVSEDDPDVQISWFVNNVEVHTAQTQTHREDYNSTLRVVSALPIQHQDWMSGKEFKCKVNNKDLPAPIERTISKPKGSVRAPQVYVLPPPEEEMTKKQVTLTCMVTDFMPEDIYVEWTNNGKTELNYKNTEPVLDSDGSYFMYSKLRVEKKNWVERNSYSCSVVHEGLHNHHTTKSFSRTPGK", "experiment": "SPR 37C, mAb capture"}, "[2]": {"molecular_target": "T2, hGITR.mmh (human)", "T2 construct": "soluble monomeric construct; also called human (h) GITR.mmh; monomeric human GITR", "T2 chain": "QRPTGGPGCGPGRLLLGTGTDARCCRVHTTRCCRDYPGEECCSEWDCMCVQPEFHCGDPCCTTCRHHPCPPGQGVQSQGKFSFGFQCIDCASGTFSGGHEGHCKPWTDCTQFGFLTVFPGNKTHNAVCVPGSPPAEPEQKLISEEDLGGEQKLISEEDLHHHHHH", "experiment": "SPR 37C, mAb capture"}, "[3]": {"molecular_target": "T3, mfGITR.mmh (Macaca fasicularis)", "T3 construct": "soluble monomeric construct; also called Macaca fasicularis (mf) GITR.mmh; cynomolgus GITR protein", "T3 chain": "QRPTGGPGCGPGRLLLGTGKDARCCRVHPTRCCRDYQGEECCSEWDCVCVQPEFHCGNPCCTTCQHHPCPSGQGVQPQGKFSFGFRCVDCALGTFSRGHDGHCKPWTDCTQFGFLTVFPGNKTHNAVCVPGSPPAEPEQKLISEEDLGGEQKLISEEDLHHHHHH", "experiment": "SPR 37C, mAb capture"}, "[4]": {"molecular_target": "T4, human GITR (amino acids M1-V241, NCBI Accession #NP_004186.1) expressed on cells (human, UniProt Q9Y5U5 26-241)", "T4 sequence": "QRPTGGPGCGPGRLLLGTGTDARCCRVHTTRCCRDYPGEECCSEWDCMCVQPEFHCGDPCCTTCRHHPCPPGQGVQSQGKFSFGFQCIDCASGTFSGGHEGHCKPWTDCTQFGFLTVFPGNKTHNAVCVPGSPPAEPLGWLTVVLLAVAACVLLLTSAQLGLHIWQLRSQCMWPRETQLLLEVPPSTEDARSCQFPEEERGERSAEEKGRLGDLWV", "experiment": "cell-based or functional assay"}, "[5]": {"molecular_target": "T4, human GITR (amino acids M1-V241, NCBI …)", "experiment": "cell-based or functional assay", "remark": "listed apart in the source"}, "[6]": {"molecular_target": "T4, human GITR (amino acids M1-V241, NCBI …)", "experiment": "cell-based or functional assay", "remark": "listed apart in the source"}, "[7]": {"molecular_target": "T4, human GITR (amino acids M1-V241, NCBI …)", "experiment": "ECL cell binding, hGITR/HEK293-D9", "outline": "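Cells blocked with 2% BSA, then antibody dilutions from 1.7 pM to 100 nM added 1 h at RT. Bound antibody detected with SULFO-TAG anti-human kappa antibody, electrochemiluminescence read, RLU fitted by four-parameter logistic; signal at 100 nM on hGITR cells versus parental cells also recorded.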"}, "[8]": {"molecular_target": "T4, human GITR (amino acids M1-V241, NCBI …)", "experiment": "cell-based or functional assay", "remark": "listed apart in the source"}}}
{"binder": "B1", "values": [{"measurement": "Kd", "setting": "[1]", "value": 0.335, "unit": "nM"}, {"measurement": "koff", "setting": "[1]", "value": 0.000401, "unit": "s⁻¹"}, {"measurement": "kon", "setting": "[1]", "value": "1.2e+06", "unit": "M⁻¹ s⁻¹"}, {"measurement": "t½", "setting": "[1]", "value": 28.8, "unit": "min"}, {"measurement": "Kd", "setting": "[2]", "value": 43, "unit": "nM"}, {"measurement": "koff", "setting": "[2]", "value": 0.0122, "unit": "s⁻¹"}, {"measurement": "kon", "setting": "[2]", "value": 284000, "unit": "M⁻¹ s⁻¹"}, {"measurement": "t½", "setting": "[2]", "value": 0.9, "unit": "min"}, {"measurement": "Kd", "setting": "[3]", "value": 41.1, "unit": "nM"}, {"measurement": "koff", "setting": "[3]", "value": 0.00243, "unit": "s⁻¹"}, {"measurement": "kon", "setting": "[3]", "value": 59100, "unit": "M⁻¹ s⁻¹"}, {"measurement": "t½", "setting": "[3]", "value": 4.7, "unit": "min"}, {"measurement": "% Activation, NF-kB-Luc, non-anchored", "setting": "[4]", "value": 50, "unit": "%"}, {"measurement": "% Blocking, NF-kB-Luc, non-anchored", "setting": "[4]", "value": 90, "unit": "%"}, {"measurement": "EC50, hGITR activation, NF-kB-Luc, non-anchored", "setting": "[4]", "value": 2.3, "unit": "nM"}, {"measurement": "IC50, blocking of hGITRL stimulation, NF-kB-Luc, non-anchored", "setting": "[4]", "value": 0.7, "unit": "nM"}, {"measurement": "fold activation, T-cell proliferation, 33 nM, FcgR anchored, donor 1", "setting": "[5]", "value": 0.7, "unit": "fold"}, {"measurement": "fold activation, T-cell proliferation, 33 nM, FcgR anchored, donor 2", "setting": "[5]", "value": 1, "unit": "fold"}, {"measurement": "fold activation, T-cell proliferation, 33 nM, FcgR anchored, donor 3", "setting": "[5]", "value": 0.9, "unit": "fold"}, {"measurement": "fold activation, T-cell proliferation, 33 nM, FcgR anchored, donor 4", "setting": "[5]", "value": 1.5, "unit": "fold"}, {"measurement": "fold activation, T-cell proliferation, 33 nM, FcgR anchored, donor 5", "setting": "[5]", "value": 1.5, "unit": "fold"}, {"measurement": "fold activation, T-cell proliferation, 33 nM, FcgR anchored, mean", "setting": "[5]", "value": 1.1, "unit": "fold"}, {"measurement": "fold activation, T-cell proliferation, plate-bound Ab 10.6 nM, donor 1", "setting": "[6]", "value": 3, "unit": "fold"}, {"measurement": "fold activation, T-cell proliferation, plate-bound Ab 10.6 nM, donor 2", "setting": "[6]", "value": 12, "unit": "fold"}, {"measurement": "fold activation, T-cell proliferation, plate-bound Ab 10.6 nM, donor 3", "setting": "[6]", "value": 12, "unit": "fold"}, {"measurement": "fold activation, T-cell proliferation, plate-bound Ab 10.6 nM, donor 4", "setting": "[6]", "value": 15, "unit": "fold"}, {"measurement": "fold activation, T-cell proliferation, plate-bound Ab 10.6 nM, donor 5", "setting": "[6]", "value": 12, "unit": "fold"}, {"measurement": "fold activation, T-cell proliferation, plate-bound Ab 10.6 nM, donor 6", "setting": "[6]", "value": 17, "unit": "fold"}, {"measurement": "fold activation, T-cell proliferation, plate-bound Ab 10.6 nM, donor 7", "setting": "[6]", "value": 11, "unit": "fold"}, {"measurement": "fold activation, T-cell proliferation, plate-bound Ab 10.6 nM, donor 8", "setting": "[6]", "value": 11, "unit": "fold"}, {"measurement": "fold activation, T-cell proliferation, plate-bound Ab 10.6 nM, mean", "setting": "[6]", "value": 12, "unit": "fold"}, {"measurement": "Average Signal (RLU) at 100 nM", "setting": "[7]", "value": 5230, "unit": "RLU"}, {"measurement": "EC50", "setting": "[7]", "value": 0.23, "unit": "nM"}, {"measurement": "fold activation, T-cell proliferation, 22 nM, non-anchored, donor 1", "setting": "[8]", "value": 0.9, "unit": "fold"}, {"measurement": "fold activation, T-cell proliferation, 22 nM, non-anchored, donor 2", "setting": "[8]", "value": 0.8, "unit": "fold"}, {"measurement": "fold activation, T-cell proliferation, 22 nM, non-anchored, donor 3", "setting": "[8]", "value": 1, "unit": "fold"}, {"measurement": "fold activation, T-cell proliferation, 22 nM, non-anchored, donor 4", "setting": "[8]", "value": 0.9, "unit": "fold"}, {"measurement": "fold activation, T-cell proliferation, 22 nM, non-anchored, mean", "setting": "[8]", "value": 0.9, "unit": "fold"}]}
